Source: US5863775A, “Control of parasites” (The University of Leeds, priority 1994, dated 1999)
Where a SMILES comes first, the peptide text is derived from it. [ ]: non-standard residue; d: D form. The star is where a group is joined. Sta = CC(C)C[C@H](N)[C@@H](O)CC(=O)O; Isovaleryl = CC(C)CC(=O)*

What was measured:
[1] = tested on: Ascaripain from Ascaris suum; assay: Sensitivity of Ascaripain to protease inhibitors; assay type: biochemical
Source text: Ascaripain from Ascaris suum is similar to Ascaridia cysteine protease. Both prefer hydrolysis of Z-Phe-Arg-aminomethylcoumarin and both have limited action on Z-Phe-Arg-Arg-aminomethylcoumarin and Bz-Arg-aminomethylcoumarin. […] Pepstatin and serine protease inhibitors have no effect.

[2] = tested on: Ascaridia galli cysteine protease; assay: Inhibition of cysteine protease fraction from Ascaridia galli; assay type: biochemical
[3] = tested on: Ascaridia galli; assay: Ascaridia galli worms held in vitro for 4 days with maize inhibitor
Method: 35 day old Ascaridia were removed from the host and thoroughly rinsed with 0.9% (w/v) NaCl in distilled water before transfer to 3 cm plastic Petri-dishes containing basic culture medium: CaCl2 2H2 O (0.24 mg/ml), Na2 HCO, (0.2 mg/ml), NaCl (9.0 mg/ml) and D-glucose. (1 mg/ml). Streptomycin sulphate (100 mg) and penicillin (60 u) were included to reduce microbial contamination.
Three treatments of five replicates containing 4 worms each were used to assess the potency, of the maize inhibitor. Each treatment was carried out in the basal culture medium supplemented with:
(i) 0.5 mg/ml bovine serum albumin (BSA);
(ii) 0.5 mg/ml maize protein recovered by the batch method of which zeacystatin was estimated to be at 22 μg/ml;
(iii) no supplement to the medium.
The worms were kept for 4 days in the dark at 37° C. and solutions changed daily. Zeacystatin concentration was estimated using a papain inhibition assay as previously and by comparison of the inhibition derived from the batch method with that achieved for the zeacystatin obtained by affinity chromatography earlier.

[4] = tested on: Caenorhabditis elegans; assay: C. elegans feeding trials on cystatin-supplemented medium; assay type: in vivo; settings: for larvae that achieved normal development to adulthood: hatched and left to develop on supplemented media; for larvae that completed development: hatched on supplemented media, then transferred to normal media; for mean eggs laid per hermaphrodite: hermaphrodites on supplemented plates, 2.5 mg 1^-1, ten replicates
Method: Caenorhabditis elegans was cultured on NGM agar carrying a lawn of OP50 E. coli as described by Wood (1988). Populations were maintained for 5 days after which time an agar plug from the colony plate was inserted onto fresh media. When required, the Oc-I (see Example 6) or BSA was added to the cooled medium to a final concentration of 2.5 mg 1^-1 just before polymerisation. Single nematodes were transferred from non-supplemented solid agar plates to plates containing Oc-I or BSA.
Feeding trials were set-up using C. elegans to examine the effect of Oc-I on nematode survival and growth. As soon as hermaphrodites became apparent on normal agar they were transferred to individual plates containing either Oc-I or BSA and egg laying was observed. Ten replicates were carried out for each condition.
Subsequently the larvae hatched under normal conditions were removed to media supplemented with either Oc-I or BSA. 50 larvae were removed at 6 h, 12 h, 24 h and 30 h (corresponding to the four larval stages L1, L2, L3 and L4 respectively).
Larvae of C. elegans were transferred to agar plates with E. coli in which the medium was supplemented with 0-10 mg/L of Oc-I and the subsequent mortality of the animals during feeding was estimated from activity of the animals.

[5] = tested on: RH strain Toxoplasma gondii in MDBK cells; assay: Toxoplasma gondii growth in MDBK cell culture; assay type: cell-based; settings: 24 hours
Method: Tachyzoites of T. gondii were produced by intraperitoneal passage in Tuck's Number 1 outbred mice, approximately 10^7 parasites are injected intra-peritoneally and parasites for culture were harvested three days later by peritoneal lavage with F12 medium and used immediately.
MDBK cells were plated onto 13 mm cover-slip cultures at a density of 1×10^5 per cover slip and incubated overnight in HAM's F12 medium (GIBCO) plus 10% foetal calf serum at 37° C. Tachyzoites of RH strain Toxoplasma gondii (2×10^6) were loaded onto each cover slip and incubated for 4 hours at 37° C. to allow invasion of the DBK cells. Cultures were then washed with F12 medium to remove extracellular parasites and the inhibitor was added at a concentration of 0, 30 or 120 μg/ml. The cultures were incubated for a further 24 hours at 37° C. and then removed, washed with PBS, fixed with Bouin's solution and stained with Geimsa. Parasite growth was assessed by scoring approximately 200 cells for the number of infected cells and the total number of parasites in the sample.

[6] = 30 h on normal media (L4) before transfer to supplemented media

CC(C)C[C@H](NC(=O)[C@H]1O[C@@H]1C(=O)O)C(=O)NCCCCN=C(N)N [E64]
sensitivity of Ascaripain from Ascaris suum to inhibitor [1]: highly sensitive
sensitivity of Ascaridia cysteine protease to inhibitor [2]: highly sensitive
inhibition of proteolytic activity of protease from Ascaridia galli ([2]; 10 μM E64, pre-incubated 20 min at 37° C., Z-Phe-Arg-β-napthylamine, FIG. 6): over 90%

CC(C)CC(=O)N[C@H](C(=O)N[C@H](C(=O)N[C@@H](CC(C)C)[C@@H](O)CC(=O)N[C@@H](C)C(=O)N[C@@H](CC(C)C)[C@@H](O)CC(=O)O)C(C)C)C(C)C [Pepstatin] (Isovaleryl-VV[Sta]A[Sta]-OH)
sensitivity of Ascaripain from Ascaris suum to inhibitor [1]: no effect
sensitivity of Ascaridia cysteine protease to inhibitor [2]: no effect

bovine serum albumin [BSA, reference compound]
Activity Score of A. galli ([3]; 0.5 mg/ml supplement in basic medium (maize protein: zeacystatin estimated 22 μg/ml), 4 days, dark, 37° C., scale 0 (dead) to 3 (frequently active)): 2.75 ± 0.35
state of worms in culture ([3]; 0.5 mg/ml supplement, 4 days at 37° C.): remained active for 4 days
larvae that achieved normal development to adulthood [4]: 95%
juveniles developing into adult nematodes ([4]; hatched from eggs laid on supplemented media, transferred to normal media): All
larvae that completed development [4]: 96.0%
mean eggs laid per hermaphrodite [4]: 300

B1: egg white cystatin: protease inhibitor of cysteine proteases (a cystatin) in chick egg white (protein, UniProt P01038 24-139, looked up)
Cystatin: SEDRSRLLGAPVPVDENDEGLQRALQFAMAEYNRASNDKYSSRVVRVISAKRQLVSGIKYILQVEIGRTTCPKSSGDLQSCEFHDEPEMAKYTTCTFVVYSIPWLNQIKLLESKCQ
sensitivity of Ascaripain from Ascaris suum to inhibitor [1]: highly sensitive
sensitivity of Ascaridia cysteine protease to inhibitor [2]: highly sensitive

B2: Oc-I: oryzacystatin I, rice cystatin cloned from Oryza sativa L. japonica, expressed in E. coli with six N-terminal histidine residues (protein, UniProt P09229 27-140, looked up)
Cysteine proteinase inhibitor …: EAHRAGGEGEEKMSSDGGPVLGGVEPVGNENDLHLVDLARFAVTEHNKKANSLLEFEKLVSVKQQVVAGTLYYFTIEVKEGDAKKLYEAKVWEKPWMDFKELQEFKPVDASANA
modifications: N-terminal His6 tag
notes: oryzacystatin I, rice cystatin cloned from Oryza sativa L. japonica, expressed in E. coli with six N-terminal histidine residues
larvae that did not reach the adult stages [4, 6]: 24%
larvae that reached adult male or hermaphrodite stages [4, 6]: 76%
eggs hatched ([4]; cystatin present in the medium): Greater than 95%
larvae that achieved normal development to adulthood [4]: less than 2%
larvae that completed development [4]: 97.0%
mean eggs laid per hermaphrodite [4]: 300
recovery of larvae after transfer to fresh unsupplemented media ([4]; larvae which failed to develop on Oc-I plates): failed to respond to the fresh food source and showed no signs of further development
LD50 for mortality of C. elegans larvae ([4]; medium supplemented with 0-10 mg/L, probit analysis, FIG. 10): approximately 7 mg OcI per liter of medium
larvae developing further to the mature adult stages ([4]; transferred 6, 12 or 24 h after hatching (L1, L2, L3) to supplemented media): none
number parasites/cell ([5]; 30 μg/ml): 6.3 ± 0.63
% cells infected ([5]; 30 μg/ml, listed as Inhibitor): 66 ± 2%
% cells infected ([5]; 30 μg/ml, listed as inhibitor): 66±2%
number parasites/cell ([5]; 120 μg/ml, P<0.05, listed as Inhibitor): 4.2 ± 0.17
number parasites/cell ([5]; 120 μg/ml, P<0.05, listed as inhibitor): 4.2±0.17
% cells infected ([5]; 120 μg/ml, listed as Inhibitor): 59 ± 0.6%
% cells infected ([5]; 120 μg/ml, listed as inhibitor): 59±0.6%
